Results taken from article PMC4257621, “Structural implications of the C-terminal tail in the catalytic and stability properties of manganese peroxidases from ligninolytic fungi” (Acta Crystallographica Section D: Biological Crystallography, 2014).

Substrate: CCn1c(=NN=c2sc3cc(S(=O)(=O)O)ccc3n2CC)sc2cc(S(=O)(=O)O)ccc21
Assay: purified protein
Format: biochemical, Gelatoporia subvermispora
Details: 0.1 M tartrate pH 3.5, 25°C, 0.1 mM H2O2, no Mn2+, micro and ± signs lost in table, µM supported by b43

B1: MnP13 (short) (Gelatoporia subvermispora B) (protein)
chain: VTCPDGVNTVANAACCPLFAVRDDIQESLFDGGKCGEEVHESLRLTFHDAIGFSPSLTAQGKFGGGGADGSIAIFESIETGYHANLGIDEIINEQATFILKHNMTAGDFIQFAGAVGVSNCPGAPQLEFLLGRPAATAPAPDKTVPEPFDTVDSILARFGDAGFSPQEVIALLASHSVAAADHVDPAIPGTPFDSTPSDFDPQIFIEVQLRGTLFPGTGGNQGEVESPYPGEIRLQSDHNLARDSRTACFWQSLANNQQQMQAQFKAAMAKLAVLGQDVSQMVDCSDVIPVPLPPATTPHIPAGLSQNNIEQACATAAFPTLPIDVGPQTSIPPVPGS
With B1 the Km was 2440 ± 200 µM, the kcat was 93 ± 3 s⁻¹ and the kcat/Km was 38000 M⁻¹ s⁻¹.

B2: MnP6 short variant (Gelatoporia subvermispora B; D200V) (protein)
chain: AVCSDGTRVSNAVCCDFVSLGQDLQSMVLQGDCGEDAHEIIRLTFHDAVAISRKLGPSAGGGADGSMLLFPLVEPEFAASNGIDDSVNNLIPFLSLHPTISAGDLVQFAGAVALSNCPGAPRVQFLAGRPNHTIAAIDGLIPEPQDNVTSILERFDDAGGFTPFEVVSLLASHTIARAVKVDPTLDAAPFDTTPFTFDSQIFLEVLLKGVGFPGLDNNTGEVSSPLPLGDTSTGGKDTGLMRLQSDFALAHDPRTACFWQGFVDQQEFMSQSFASAFAKLAVLGHNTDDLIDCSEVVPVPKPAVDKPTTFPATTGPQDLELSCLAERFPTLSVDPGAQETLIPHCSD
For B2, the Km was 288 ± 12 µM, the kcat was 76 ± 1 s⁻¹ and the kcat/Km was 263000 M⁻¹ s⁻¹.
